# Data reported in patent US5574007A, “Polypeptide capable of interacting with thrombin” (Asahi Kasei Kogyo Kabushiki Kaisha, priority 1990, dated 1996).
# Positions of bridges follow the written chain, without caps; N, C: chain ends. Residues, ends and D or L forms follow the SMILES beside them.
# Experiments:
# [1] = target: T1, thrombin-catalyzed activation of protein C (Homo sapiens, UniProt P00734); assay: Assay of the activity to promote the thrombin-catalyzed activation of protein C (Example 1-(3), fluorogenic substrate Boc-Leu-Ser-Thr-Arg-MCA); assay type: biochemical, bovine; set-up: 3 μl of thrombin (manufactured and sold by Sigma Chemical Company, catalog No. T-6759, 20 ng/μl); purchased Sigma Chemical Company T-6759; conditions: for activity to promote the thrombin-catalyzed activation of protein C (in words): purified polypeptide from COS-1, calcium ion concentrations of 0 to 5 mM
# Experimental: 5 μl of the supernatant of the culture of COS-1 cells is transformed by each of plasmids pSV2TMD7 and pSV2TMD8, 3 μl of thrombin (manufactured and sold by Sigma Chemical Company, catalog No. T-6759, 20 ng/μl), 5 μl of 10×Assay Buffer containing 1M NaCl, 30 mM CaCl2, 1% calf serum albumin and 0.5M tris-HCl buffer (pH 8.5) and 29.5 μl of distilled water are mixed together and allowed to stand at 37° C. for 5 minutes, followed by the addition of 7.5 μl protein C (derived from bovine, 0.2 μg/μl) to the mixture. The reaction is conducted at 37° C. for 30 minutes, and terminated by adding 6.25 μl of a stop solution (20 mM tris-HCl buffer, pH7.5, containing 100 mM NaCl, 0.3A280 anti-thrombin III and 100 μg/ml heparin).
# The activity of activated protein C is measured by first adding 10 μl of Boc-Leu-Ser-Thr-Arg-MCA (manufactured and sold by Peptide Institute, The Foundation (Japan), 5 mg/ml), 5 μl of 5M CsCl and 495 μl of a substrate reaction buffer (50 mM tris-HCl buffer containing 100 mM NaCl (pH 8.5)), next allowing the reaction to proceed at 37° C. for 20 minutes, then terminating the reaction by adding 55 μl of acetic acid, and finally measuring the concentration of liberated AMC ([…]) by means of a spectrofluorometer (model RF-540, manufactured and sold by Shimadzu Corporation, Japan) at an excitation wavelength of 380 nm and an emission wavelength of 440 nm. The obtained fluorescence intensity is compared with the fluorescence intensity of a solution having a known AMC concentration to determine the amount of the liberated AMC. The value obtained by deducting from this amount the amount of AMC in the case where an aqueous solution containing no polypeptide of the present invention is added, represents the activity of the polypeptide to promote the thrombin-catalyzed activation of protein C. The activity to produce 1 nM of activated protein C per ml of reaction mixture and per minute is defined as 1 u (unit).
# (§1) With respect to the polypeptide solutions (0.4 μg/ml) purified and quantitated in Example 1-(5)-(d), the activity of polypeptides to promote the thrombin-catalyzed activation of protein C is measured according to the method described in Example 1-(3). The CaCl2 concentration of 10×Assay buffer is adjusted so that the activities at calcium ion concentrations of 0 to 5 mM are determined. Also, with respect to protein C having no Gla domain (hereinafter referred to as "GDPC") which is prepared by chymotrypsin treatment according to the method of N. L. Esmon [J. Biol. Chem. Vol. 258, pp. 5548-5553 (1983)]and which is used instead of protein C, the activity measurement is carried out within the same range of calcium concentration.
# [2] = target: T2, thrombin-catalyzed activation of GDPC (protein C having no Gla domain) (Homo sapiens, UniProt P00734); assay: Same assay with protein C having no Gla domain (GDPC) instead of protein C; assay type: biochemical; conditions: calcium ion concentrations of 0 to 5 mM
# T2 construct: 3 μl of thrombin (manufactured and sold by Sigma Chemical Company, catalog No. T-6759, 20 ng/μl); purchased Sigma Chemical Company T-6759
# Experimental: as §1
# [3] = target: binding of thrombin to thrombomodulin (Homo sapiens, UniProt P00734); assay: Activity of synthetic peptides to inhibit the binding of thrombin to thrombomodulin (Dixon plot); conditions: D123Asp-coated plate, crosslinked synthetic peptide
# Experimental: The acitvity of each of the synthetic peptides to inhibit the binding of thrombin to thrombomodulin is determined by the following method. D123Asp purified in Example 1-(4)-(b) is diluted with 0.1M sodium bicarbonate buffer (pH 9.2) so that the final concentration of D123Asp becomes 1.5 μg/ml. 100 μl of the diluent is dispensed to each well of a flat-bottomed 96 well-microtiter plate for ELISA. The plate is allowed to stand for 3 hours, and then each well is washed with 0.1M sodium bicarbonate buffer (pH 9.2). 150 μl of 50 mM Tris-HCl buffer (pH 7.5) containing 0.1M NaCl and 1% BSA is dispensed to each well, and the plate is allowed to stand for 2 hours so that each well is subjected to blocking. To each well of the plate is added a solution obtained by reacting thrombin (0 to 0.4 μg/μl), which has been diluted with a washing solution {50 mM Tris-HCl buffer (pH 7.5) containing 0.5% BSA and 0.05% Tween-20}, with various concentrations of the synthetic peptide solutions at 37° C. for 30 minutes, and a reaction is conducted at room temperature for 1 hour. The plate is washed again with the above-mentioned washing solution. To each well of the plate is added 100 μl of 50 mM Tris-HCl buffer (pH 8.0) containing 0.1M NaCl, in which 200 μM H-D-Phe-Pip-Arg-pNA (Kabi Virum, Sweden, catalog No. S2238) has been dissolved, to thereby liberate pNA (paranitroanilin). A few hours later, the absorbance of the liberated pNA is measured at a wavelength of 410 nm. To determine the inhibition constant (Ki) of each of the synthetic peptides, 100/v in which v represents the thrombin activity (expressed in %) at the time when a peptide having a predetermined concentration is added, assuming the thrombin activity in the absence of a peptide as 100%, is plotted in rectangular coordinates against the concentration of the peptide to-obtain a graph (Dixon plot). The inhibition constant (Ki) is defined as the reading of the intersection of the plotted line with the abscissa.
# [4] = target: thrombin-catalyzed conversion of fibrinogen to fibrin (Homo sapiens, UniProt P00734); assay: Anticoagulating activity: clotting time of a fibrinogen solution; assay type: biochemical; conditions: polypeptide purified from Acremonium chrysogenum (Example 6(4))
# Experimental: The activity of each of the polypeptides of the present invention to inhibit the thrombin-catalyzed conversion of fibrinogen to fibrin so as to inhibit blood coagulation, is determined by measuring clotting time using Coagulometer KC-10A (manufactured and sold by Heinrich Amelung A.G., Germany). Illustratively stated, to 0.05M Tris-HCl buffer (pH 7.5) containing 5 mM CaCl2 and 0.1M NaCl is added 3.0 μg of fibrinogen (Fraction I, manufactured and sold by Sigma Chemical Company, U.S.A.). To the resultant mixture is added 0 to 50 nM of each of the purified polypeptides of the present invention. Then, 10 nM thrombin is added to the mixture in such an amount that the total amount of the mixture becomes 0.4 ml, and then the coagulation time of the mixture is measured.
# [5] = tested on: thrombin-catalyzed platelet aggregation; assay: Platelet aggregation-inhibiting activity (Platelet Rich Plasma, HEMA TRACER IV); assay type: cell-based; conditions: polypeptide purified from Acremonium chrysogenum (Example 6(4))
# Experimental: The activity of each of the polypeptides of the present invention to inhibit the thrombin-catalyzed platelet aggregation is evaluated using platelet aggregation measuring apparatus HEMA TRACER IV (manufactured and sold by NIKO Bioscience, Inc., Japan). Measurement is carried out according to the manual attached thereto. When 40 μl of a 20 NIH unit/ml thrombin solution (manufactured and sold by SIGMA Chemical Co., U.S.A., T 6759) is added to 180 μl of a Platelet Rich Plasma (PRP) platelet solution (3×10^5 cells/μl) and incubated, the aggregation of platelets occurs. […] The aggregation of platelets is determined on the basis of the transparency, assuming the transparency of Platelet Poor Plasma (PPP) solution as 100%. The ratio of platelet aggregation is plotted against the incubation time (0 min: the time when thrombin or a mixture of thrombin and one of the polypeptides is added to the PRP solution). It is confirmed that the platelet aggregation is inhibited when one of the polypeptides of the present invention is added.
# [6] = target: T1, thrombin-catalyzed activation of protein C; assay: Activated protein C formation against reaction time with purified polypeptide (Example 4-(6)); assay type: biochemical
# Experimental: To 0.02M Tris-HCl buffer (pH 8.5) containing 0.1M NaCl, 0.5 mM CaCl2 and 10 mg/ml BSA are added 50 μg/ml protein C, 5 nM thrombin and 5 nM of each of the purified polypeptides of the present invention, and reacted at 37° C. To each of the reaction mixtures are added 300 μg/ml antithrombin III (manufactured and sold by Sigma Chemical Company, U.S.A.) and 5 mM EDTA to terminate the reaction. Then, the amount of the activated protein C produced by the reaction is determined by the method described in Example 1-(3) in which a synthetic substrate is used.
compound,measurement,setting,value
D123Ala: polypeptide up to the 516th position of human thrombomodulin wherein the 367th Asp is changed to Ala (pSV2TMM1),activity to promote the thrombin-catalyzed activation of protein C (in words),[1],low activity
same,activity in the activation of GDPC (in words),[2],low activity
"C[C@H](N)C(=O)N[C@H]1CSSC[C@@H](C(=O)N[C@@H](CCC(=O)O)C(=O)O)NC(=O)[C@H](CO)NC(=O)[C@H](C)NC(=O)[C@H](CCC(N)=O)NC(=O)[C@H]([C@@H](C)O)NC(=O)[C@H](CC(N)=O)NC(=O)[C@@H]2CCCN2C(=O)[C@H](CC(=O)O)NC(=O)[C@H](C)NC(=O)[C@H](CC(=O)O)NC(=O)[C@H](C)NC(=O)[C@@H]2CCCN2C1=O [Polypeptide B, Ala-Cys-Pro-Ala-Asp-Ala-Asp-Pro-Asn-Thr-Gln-Ala-Ser-Cys-Glu] (H-ACPADADPNTQASCE-OH; disulfide 2-14)",Inhibition constant (Ki),[3],no inhibiting activity
"CSCC[C@H](N)C(=O)N[C@@H](Cc1ccccc1)C(=O)N[C@H]1CSSC[C@@H](C(=O)N[C@@H](CC(=O)O)C(=O)O)NC(=O)[C@H](CC(=O)O)NC(=O)[C@H](C)NC(=O)[C@@H]2CCCN2C(=O)[C@H](C)NC(=O)[C@H](C)NC(=O)[C@H]([C@@H](C)O)NC(=O)[C@H](CCC(N)=O)NC(=O)[C@H](CC(N)=O)NC1=O [Polypeptide A, Met-Phe-Cys-Asn-Gln-Thr-Ala-Ala-Pro-Ala-Asp-Cys-Asp] (H-MFCNQTAAPADCD-OH; disulfide 3-12)",Inhibition constant (Ki),[3],no inhibiting activity
D123Glu: polypeptide up to the 516th position of human thrombomodulin wherein the 367th Asp is changed to Glu (pSV2TMM2),activity relative to that of D123Asp,[1]; activation of protein C,1.2 times
same,activity to promote the thrombin-catalyzed activation of protein C (in words),[1],activity similar to that of D123Asp
"CC[C@H](C)[C@H](NC(=O)[C@H](CC(=O)O)NC(=O)[C@@H](NC(=O)[C@@H]1CSSC[C@H](NC(=O)[C@@H](N)CCC(=O)O)C(=O)N2CCC[C@H]2C(=O)N[C@@H](CCC(=O)O)C(=O)NCC(=O)N[C@@H](Cc2ccc(O)cc2)C(=O)N[C@@H]([C@@H](C)CC)C(=O)N[C@@H](CC(C)C)C(=O)N[C@@H](CC(=O)O)C(=O)N[C@@H](CC(=O)O)C(=O)NCC(=O)N[C@@H](Cc2ccccc2)C(=O)N[C@@H]([C@@H](C)CC)C(=O)N1)[C@@H](C)O)C(=O)N[C@@H](CC(=O)O)C(=O)N[C@@H](CCC(=O)O)C(=O)O [Polypeptide C, Glu-Cys-Pro-Glu-Gly-Tyr-Ile-Leu-Asp-Asp-Gly-Phe-Ile-Cys-Thr-Asp-Ile-Asp-Glu] (H-ECPEGYILDDGFICTDIDE-OH; disulfide 2-14)",Ki,[3]; read-out: Inhibition constant (Ki),95 µM
E456Glu: 367th to 480th amino acid residues of human thrombomodulin in which the 367th Asp is replaced by Glu (pSV2TMM3),clotting time of fibrinogen solution against amount of polypeptide (in words),[4],the longer the clotting time
same,activity relative to that of E456Asp,[1]; activation of protein C,1.3 times
same,thrombin-catalyzed platelet aggregation (in words),[5],inhibited
same,amount of activated protein C with reaction time (in words),"[6]; 5 nM polypeptide, 5 nM thrombin, 50 μg/ml protein C, 37° C., polypeptide from COS-1 or CHO cells",increased with the lapse of reaction time
same,amount of activated protein C with reaction time (in words),[6]; polypeptide purified from Acremonium chrysogenum strains D71 and M31 (Example 6(4)),increased with the lapse of reaction time
